The supplement of paper PMC10567573

B1: POMT2 (parent)
chain: VLRSRIRFIHLVTGCVLGSSGKVL
B2: ZNF263 (parent)
chain: FAHSSNLLRHQRIHTGERPYKCPE

Variants of: B1
Experiment: protein stability index of a GFP-peptide fusion (GPS, HEK-293T) (PSI 1-6); higher = more stable
Conditions: c terminus: a fixed tail appended
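Note: lentivirally expressed fusions sorted by FACS into six bins by GFP to DsRed ratio, PSI derived from sequencing read proportions per bin multiplied by bin number.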

Protein stability index, by site and new letter:
R5: W 2.14 | I 2.1 | L 3.1 | N 2.48 | T 1.99
V1: R 1.96 | N 3.04 | Y 2.51 | M 3.35 | P 3.01 | E 2.61
S4: T 3.04 | V 2.38 | E 2.36
V12: C 2.2 | P 2.25 | R 2.65 | M 3.2 | E 4.33 | L 2.13
L24: D 2.33 | W 4.21 | Y 2.18 | I 4.08
S20: R 2.82 | C 3.22 | I 1.78 | H 2.64 | P 1.69 | A 3.46
I6: V 3.12 | H 2.53 | D 1.89 | R 1.78 | L 2.83 | G 2.81 | P 3.19
V23: M 2.32 | Q 3.61 | Y 2.47 | P 3.61 | E 3.48
L11: C 3.74 | K 2.13 | I 2.01 | A 2.33 | Q 2.87 | H 2.02 | E 2.96 | N 2.07
L17: H 2.75 | F 1.62 | Y 4.34 | M 2.42 | Q 1.08
H10: F 3.38 | G 3.29 | T 2.92 | L 1.87 | K 1.58 | M 1.99 | Y 2.84
R7: A 3.22 | P 2.44 | C 2.94
F8: A 1.04 | E 1.76 | K 2.4 | P 1.48 | V 2.68 | S 1.57
T13: P 4.82 | K 2.22 | G 1.51 | L 3.22 | Y 3.54 | Q 2.86 | I 2.31 | F 1.64 | E 2.08
I9: Y 3.49 | L 2.5 | G 2.62 | A 4.43 | K 2.98 | D 1.63 | V 1.5
L2: V 2.83 | E 1.06 | Q 3.47 | K 3.28
G14: M 1.85 | W 2.51 | V 4.81 | A 4.85
G18: C 2.32 | I 2.37 | E 2.45 | N 4.13 | K 2
G21: S 3.83 | L 3.1 | P 2.65 | D 3.45 | H 3.14 | C 3.88
R3: Y 2.82 | L 2.04 | H 2.39 | G 3.29 | I 3.85 | V 2.18
K22: L 2.69 | A 2.25 | S 2.57
C15: M 2.21 | R 2.13 | G 3.07
S19: R 2.41 | T 3.6
V16: P 4.02 | K 3.78 | Y 3.11 | R 4.75 | G 2.39

Variants of: B2
Experiment: as above
Conditions: c terminus: a fixed tail appended

Protein stability index of substitutions, site by site:
Y20: D 3.46 | Q 3.48 | H 3.23 | C 2.37 | I 2.63 | F 2.77 | G 3.32 | L 2.81 | W 2.75 | N 3.29 | R 2.91 | S 3.31 | A 3.51 | K 3.43 | V 3.48 | T 3.38 | M 2.72 | E 3.68 | P 3.02
E24: G 1.92 | A 1.89 | K 2.46 | I 1.7 | F 1.59 | C 1.56 | P 1.87 | R 2.15 | Y 2.28 | V 1.56 | W 2.72 | S 1.84 | T 1.87 | L 1.48 | D 2.44 | M 2.4 | H 2.16 | N 1.88 | Q 2.33
T15: R 2.5 | G 2.19 | Q 2.19 | C 1.95 | V 2.68 | P 1.87 | I 2.29 | H 2.12 | S 2.65 | M 2.36 | Y 2.23 | L 2.36 | N 2.36 | W 1.6 | F 2.58 | E 2.24 | A 1.97 | D 2.56 | K 1.99
G16: P 2.37 | V 2.1 | E 2.67 | K 2.23 | D 2.77 | S 1.97 | I 2.22 | C 2.36 | M 1.88 | F 1.37 | R 1.57 | W 1.32 | Q 2.01 | Y 1.93 | T 2.56 | N 2.43 | H 2.02 | L 2.07 | A 2.37
R18: F 2.16 | P 2.45 | H 2.52 | I 2.21 | K 2.09 | T 2.27 | S 2.35 | C 2.23 | Y 1.86 | M 2.2 | A 2.68 | L 2.39 | Q 2.36 | D 3.28 | V 2.46 | G 2.54 | N 2.45 | W 2.66 | E 3.36
E17: T 2.19 | P 2.63 | H 2.47 | F 1.95 | Q 2.86 | L 2.04 | G 1.81 | K 1.44 | S 2.29 | R 1.95 | A 2.31 | I 2.29 | V 2.44 | M 1.98 | Y 1.47 | W 2.16 | N 1.8 | D 1.91 | C 1.65
P23: L 2.12 | N 2.56 | G 2.82 | K 2.52 | W 2.2 | T 2.29 | F 2.11 | V 1.87 | M 2.2 | C 1.64 | A 2.54 | R 1.95 | H 2.36 | S 2.41 | Y 2.5 | Q 3 | D 2.47 | E 2.67 | I 2.58
H14: W 3.6 | D 2.81 | E 2.73 | R 2.18 | L 2.57 | M 3 | G 2.59 | K 2.08 | T 1.91 | I 2.57 | A 2.99 | C 3.21 | N 2.71 | Q 2.98 | S 2.46 | V 2.34 | P 3.05 | Y 1.9 | F 2.16
P19: D 3.71 | K 3.02 | Q 3.17 | I 2.38 | S 2.69 | H 2.89 | E 3.67 | C 2.48 | Y 2.58 | R 2.9 | V 2.67 | F 2.74 | T 3.02 | M 3.05 | N 2.75 | L 2.65 | G 2.59 | W 1.83 | A 2.54
K21: E 2.79 | Q 2.3 | G 2.21 | S 2.29 | H 2.49 | P 2.51 | L 2.4 | R 1.97 | T 2.83 | V 2.65 | I 2.6 | D 2.62 | A 2.41 | Y 2.81 | W 2.64 | F 2.56 | C 2.56 | N 3.13 | M 2.07
C22: V 2.13 | P 2.58 | I 2.06 | Q 2.9 | A 3.1 | S 3.48 | M 2.26 | T 2.03 | H 2.8 | N 2.95 | F 2.08 | Y 2.44 | L 2.25 | D 3.74 | G 2.36 | R 2.29 | K 2.15 | W 2.08 | E 3.37
